According to publication PMC6610666, “E2F4 regulates transcriptional activation in mouse embryonic stem cells independently of the RB family” (Nature Communications, 2019):

Target: mouse CBP TAZ1 (residues 340-439) (mouse, UniProt P45481 340-439)
Assay: ITC; MicroCal VP-ITC; E2F4 TAD (300 uM) titrated into TAZ1 (30 uM) at 25 C; 25 mM HEPES pH 7.0, 200 mM NaCl, 5% glycerol v/v; E2F4 concentration adjusted such that N was close to 1
Conditions: both partners purified

mouse CBP TAZ1 (residues 340-439), sequence (P45481 340-439): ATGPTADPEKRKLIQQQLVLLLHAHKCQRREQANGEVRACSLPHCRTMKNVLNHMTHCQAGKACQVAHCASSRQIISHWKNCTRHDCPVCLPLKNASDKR

B1: human E2F4 transactivation domain (residues 390-407) (domain or fragment, UniProt Q16254 390-407, looked up)
chain: HDYIYNLDESEGVCDLFD
notes: also called E2F4 TAD; E2F4 peptide; source: E. coli, purified (GST fusion, Superdex-75)
B1: binds.
